US20260265358A1 (BYOMASS, published 2026)
Positions count from the first letter of the chain named. Where “and” joins values, the source holds several entries; their conditions need not be identical. Equal values may be shown once.

T1: Human Activin B Fc (human, UniProt P09529 293-407, limits assumed)
T1 construct: not shown: Fc part
T1 sequence (looked up): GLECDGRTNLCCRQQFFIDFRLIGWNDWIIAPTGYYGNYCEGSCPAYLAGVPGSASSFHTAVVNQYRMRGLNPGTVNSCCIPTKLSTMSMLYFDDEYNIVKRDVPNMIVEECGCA

T2: Human Activin A Fc (human, UniProt P03970 309-424 (pig entry))
T2 construct: also called human Activin A-Fc fusion; human Activin A-Fc antigen; not shown: Fc part
T2 sequence: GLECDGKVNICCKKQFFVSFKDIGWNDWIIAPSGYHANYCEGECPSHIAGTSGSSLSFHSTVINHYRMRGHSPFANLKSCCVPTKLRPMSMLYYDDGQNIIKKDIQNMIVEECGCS

T3: Activin B (UniProt P09529 293-407)
T3 sequence (looked up): T1 sequence (looked up)

T4: Human GDF10 (human, UniProt P55107 369-478)
T4 sequence (looked up): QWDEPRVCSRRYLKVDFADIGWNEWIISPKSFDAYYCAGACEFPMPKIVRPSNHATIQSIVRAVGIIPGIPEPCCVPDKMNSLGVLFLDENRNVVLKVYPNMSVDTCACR

T5: GDF15 Fc (UniProt Q99988 197-308, limits assumed)
T5 construct: not shown: Fc part
T5 sequence (looked up): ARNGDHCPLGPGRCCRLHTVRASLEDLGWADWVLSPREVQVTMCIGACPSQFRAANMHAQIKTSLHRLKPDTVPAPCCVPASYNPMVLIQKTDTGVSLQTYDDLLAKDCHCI

T6: Human GDNF (human, UniProt P39905 78-211)
T6 sequence (looked up): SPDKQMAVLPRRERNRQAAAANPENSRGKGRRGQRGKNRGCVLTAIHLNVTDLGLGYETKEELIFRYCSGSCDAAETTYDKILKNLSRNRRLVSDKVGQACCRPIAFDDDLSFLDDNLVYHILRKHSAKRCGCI

T7: BMP10 (UniProt O95393 317-424)
T7 sequence (looked up): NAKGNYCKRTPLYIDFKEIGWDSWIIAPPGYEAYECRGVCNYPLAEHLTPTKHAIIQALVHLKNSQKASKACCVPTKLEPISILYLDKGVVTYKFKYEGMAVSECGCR

T8: BMP9 (UniProt Q9UK05 320-429)
T8 sequence (looked up): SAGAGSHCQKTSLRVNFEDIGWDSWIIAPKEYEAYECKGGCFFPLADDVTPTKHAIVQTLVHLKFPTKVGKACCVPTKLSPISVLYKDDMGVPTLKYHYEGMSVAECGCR

T9: Activin A (ligand of the Activin 2B Receptor/SMAD reporter assay) (UniProt P08476 311-426)
T9 sequence (looked up): T2 sequence

T10: biotinylated Human Activin A (human, UniProt P03970 309-424 (pig entry), biotinylated (EZ-Link Sulfo-NHS-Biotinylation Kit))
T10 sequence: T2 sequence

B1: anti-Activin A antibody Clone B (IgG) (antibody, V domains shown)
VH: QVQLVQSGAEVKKPGASVKVSCKASGYTFIGYDMHWVRQAPGQGLEWMGVINPSSGGTNYAQKFQGRVTMTRDTSISTAYMELSRLRSDDTAVYYCARARDIAALGLGAFDYWGQGTLVTVSS
VL: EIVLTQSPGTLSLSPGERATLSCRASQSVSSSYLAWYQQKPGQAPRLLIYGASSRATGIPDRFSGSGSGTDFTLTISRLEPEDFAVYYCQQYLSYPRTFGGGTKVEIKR
notes: IgG format; also called Antibody B
B2: anti-Activin A antibody Clone G (IgG) (antibody, V domains shown)
VH: QVQLVQSGAEVKKPGASVKVSCKASGYTFTSYYIHWVRQAPGQGLEWMGAIYAYSGDTNYAQKLQGRVTMTTDTSTSTAYMELRSLRSDDTAVYYCARARDIAAAGLGAFDYWGQGTLVTVSS
VL: EIVLTQSPGTLSLSPGERATLSCRASQSVRSSYLAWYQQKPGQAPRLLIYGASSRATGIPDRFSGSGSGTDFTLTISRLEPEDFAVYYCQQYSNYPRTFGGGTKVEIKR
notes: IgG format; also called Antibody G
B3: anti-Activin A antibody Clone I (IgG) (antibody, V domains shown)
VH: QVQLVQSGAEVKKPGSSVKVSCKASGGTFSNYAISWVRQAPGQGLEWMGYIIPFFGTANYAQKFQGRVTITADESTSTAYMELSSLRSEDTAVYYCARGGSGYSTSWGSSLYWGQGTLVTVSS
VL: B2 VL with R30S, S54Y, Q90L, Y92S, S93G, N94V, Y95F, R97Y
notes: IgG format; also called Antibody I
B4: anti-Activin A antibody Clone L (IgG) (antibody, V domains shown)
VH: QVQLQESGPGLVKPSETLSLTCAVSGYSISSGYYWGWIRQPPGKGLEWIGSIYHSGSTYYNPSLKSRVTISVDTSKNQFSLKLSSVTAADTAVYYCAREAGSGYWYLSVYGMDVWGQGTTVTVSS
VL: EIVLTQSPATLSVSPGERATLSCRASQSVSSNLAWYQQKPGQAPRLLIYGASTRATGIPARFSGSGSGTEFTLTISSLQSEDFAVYYCQQSDDWPWTFGGGTKVEIKR
notes: IgG format; also called Antibody L
B5: Fab of anti-Activin A antibody Clone B (Fab, V domains shown)
VH: B1 VH
VL: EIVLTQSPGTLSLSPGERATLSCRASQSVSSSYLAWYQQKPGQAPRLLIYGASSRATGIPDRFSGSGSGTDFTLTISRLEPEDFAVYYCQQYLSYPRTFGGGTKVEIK
notes: Fab format; only VH and VL are tied to the clone; also called Fab of Clone B
B6: anti-Activin A antibody Clone Q (IgG) (antibody, V domains shown)
VH: QVQLVQSGAEVKKPGSSVKVSCKASGGSFSPYTWSWVRQAPGQGLEWMGGIIPISGTANTAQKFQGRVTITADESTSTAYMELSSLRSEDTAVYYCARGGPLSGWRASYYYWGQGTLVTVSS
VL: not shown
notes: IgG format; also called Antibody Q

Assays:
Human Activin B Fc [1] = target: T1, Human Activin B Fc; test: KD with 5% HSA, method not stated
Human Activin A Fc [2] = target: T2, Human Activin A Fc; test: KD with 5% HSA, method not stated
Human Activin A Fc [3] = target: T2, Human Activin A Fc; test: Octet BLI, IgG, avid
Experimental: ForteBio affinity measurements were performed on an Octet HTX generally as previously described (see, e.g., Estep et al, Mabs 5(2), 270-278 (2013)). Briefly, ForteBio affinity measurements were performed by loading IgGs on-line onto AHC sensors. Sensors were equilibrated off-line in assay buffer for 30 min and then monitored on-line for 60 seconds for baseline establishment. Sensors with loaded IgGs were exposed to 100 nM antigen for 3 minutes, and afterwards were transferred to assay buffer for 3 min for off-rate measurement. All kinetics were analyzed using the 1:1 binding model.
Binding affinity and epitope binning assays were performed with a ForteBio instrument as described herein.

Human Activin B Fc [4] = target: T1, Human Activin B Fc; test: KD with 0.1% HSA, method not stated
Human GDF-11 Fc [5] = target: T11, Human GDF-11 Fc (human, UniProt O95390 299-407, limits assumed); test: KD with 0.1% HSA, method not stated
T11 construct: not shown: Fc part
T11 sequence (O95390 299-407 limits assumed): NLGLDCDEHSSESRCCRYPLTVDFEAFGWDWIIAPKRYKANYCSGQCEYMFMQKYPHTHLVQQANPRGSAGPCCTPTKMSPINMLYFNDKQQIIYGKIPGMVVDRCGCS

Human Activin A Fc [6] = target: T2, Human Activin A Fc; test: KD with 0.1% HSA, method not stated
Activin B [7] = target: T3, Activin B; test: Octet BLI, IgG, avid
Human GDF11 = Human GDF11 (human, UniProt O95390 299-407); test: Octet BLI, IgG, avid
Sequence of Human GDF11 (O95390 299-407 limits assumed): as above

Human GDF10 = target: T4, Human GDF10; test: Octet BLI, IgG, avid
Human GDF8 = Human GDF8 (human, UniProt O14793 267-375); test: Octet BLI, IgG, avid
GDF15 Fc = target: T5, GDF15 Fc; test: Octet BLI, IgG, avid
Human GDNF = target: T6, Human GDNF; test: Octet BLI, IgG, avid
BMP10 = target: T7, BMP10; test: Octet BLI, IgG, avid
BMP9 = target: T8, BMP9; test: Octet BLI, IgG, avid
Human Activin B Fc [8] = target: T1, Human Activin B Fc; test: KD with 0.1% BSA, method not stated
Human GDF-11 Fc [9] = target: T11, Human GDF-11 Fc; test: KD with 0.1% BSA, method not stated
Human Activin A Fc [10] = target: T2, Human Activin A Fc; test: KD with 0.1% BSA, method not stated; with 0.1% BSA
Activin B [11] = target: T3, Activin B; test: cell-based or functional assay
[12] = target: T9, Activin A (ligand of the Activin 2B …); test: cell-based or functional assay
[13] = target: T10, biotinylated Human Activin A; test: SPR (Biacore 8K), antigen captured, Fab analyte
Experimental: (§1) Kinetic analysis was conducted at 25° C. in HBS-EP+ running buffer (10 mM HEPES pH 7.4, 150 mM NaCl, 3 mM EDTA, 0.05% Surfactant P20) using a Biacore 8K optical biosensor (Cytiva, Marlborough, MA). The sample compartment was maintained at 10° C. for the duration of the experiment. The Biacore 8K can analyze up to 8 separate interactions in a single cycle.
(§2) Each experiment cycle began with an injection (300 s at 2 μL/min) overflow cells 1 and 2 of a 1:100 solution of biotin CAPture reagent (Cytiva) in running buffer. This was followed by an injection (45 s at 10.0 μL/min) of biotinylated human ACTIVIN A (5 nM) overflow cell 2. Upon capture of ACTIVIN A to the sensor surface, a single concentration of Fab ranging from 0.111-81.0 nM was injected (300 s at 30 μL/min) overflow cells 1 and 2. The dissociation of the antibodies were monitored for 3420 s. Finally, an injection (120 s at 10 μL/min) of regeneration solution (6 M Guanidine-HCl in 0.25 M NaOH) overflow cells 1 and 2 prepared the sensor surface for another cycle. Several blank buffer samples were injected (300 s at 30 μL/min) overflow cells 1 and 2 throughout the duration of the experiment and used for reference surface subtraction—each were monitored for the same amount of dissociation time (3420 s) and regenerated under the same conditions as those for the Fab sample injections.
(§3) The anti-Activin antibodies identified in Example 1 were characterized. First, binding kinetics of the anti-Activin antibodies was assessed with a Surface Plasmon Resonance assay (Biacore).

Human Activin A Fc [14] = target: T2, Human Activin A Fc; test: Octet BLI, Fab, monovalent
[15] = target: T10, biotinylated Human Activin A; test: SPR (Biacore 8K), antigen captured, Fab analyte; second, unlabelled row under Clone B (Rmax 38.1)
Experimental: as §1
as §2, with “Finally, an injection (120 s at 10 μL/min) of regeneration solution (6 M Guanidine-HCl in 0.25 M NaOH) overflow cells 1 and 2 prepared the sensor surface for another cycle.” left out
as §3

Human Activin A Fc [16] = target: T2, Human Activin A Fc; test: KD with 0.1% BSA, method not stated

| Binder | Kd (Human Activin A Fc [2]) [nM] | Kd (Human Activin A Fc [3]) [nM] | Kd (Human Activin A Fc [6]) [nM] | Kd (Activin B [7]) [nM] | binding result (Human GDF10) | binding result (Human GDF8) | binding result (GDF15 Fc) | binding result (Human GDNF) | binding result (BMP10) | binding result (BMP9) | Activin B-ActRIIB SMAD IC50 pM (Activin B [11]) [pM] | Activin A-ActRIIB SMAD IC50 pM [12] [pM] | binding result (Activin B [7]) | binding result (Human GDF11) | also measured |
| --- | --- | --- | --- | --- | --- | --- | --- | --- | --- | --- | --- | --- | --- | --- | --- |
| B1 | 0.217 | 0.527 | 0.138 | 46.8 | no binding (tested: 100 nM antigen) | no binding (tested: 100 nM antigen) | no binding (tested: 100 nM antigen) | no binding (tested: 100 nM antigen) | no binding (tested: 100 nM antigen) | no binding (tested: 100 nM antigen) | – | – | – | – | Kd (Human Activin B Fc [1]): 10 nM; Kd (Human Activin B Fc [4]): 2.96 nM; Kd (Human GDF-11 Fc [5]): 18.3 nM; Kd (Human GDF11): 21 nM; Kd (Human Activin B Fc [8]): 3.37 nM; Kd (Human GDF-11 Fc [9]): 18.9 nM; Kd (Human Activin A Fc [10]): 0.138 nM |
| B2 | – | 0.68 | – | – | no binding (tested: 100 nM antigen) | no binding (tested: 100 nM antigen) | no binding (tested: 100 nM antigen) | no binding (tested: 100 nM antigen) | no binding (tested: 100 nM antigen) | no binding (tested: 100 nM antigen) | > 100000 | 15.8 | no binding (tested: 100 nM antigen) | no binding (tested: 100 nM antigen) | – |
| B3 | – | 0.536 | – | – | no binding (tested: 100 nM antigen) | no binding (tested: 100 nM antigen) | no binding (tested: 100 nM antigen) | no binding (tested: 100 nM antigen) | no binding (tested: 100 nM antigen) | no binding (tested: 100 nM antigen) | 52400 | 1.09 | no binding (tested: 100 nM antigen) | no binding (tested: 100 nM antigen) | – |
| B4 | – | 1.57 | – | 241 | no binding (tested: 100 nM antigen) | no binding (tested: 100 nM antigen) | no binding (tested: 100 nM antigen) | no binding (tested: 100 nM antigen) | no binding (tested: 100 nM antigen) | no binding (tested: 100 nM antigen) | > 100000 | 200 | – | no binding (tested: 100 nM antigen) | – |
| B5 | – | – | – | – | – | – | – | – | – | – | – | – | – | – | Kd [13]: 0.00981 nM; koff [13]: 2.27e-05 s⁻¹ and 1.58e-05 s⁻¹; kon [13]: 2.31e+06 M⁻¹ s⁻¹ and 2.56e+06 M⁻¹ s⁻¹; Kd (Human Activin A Fc [14]): 0.309 nM; Kd [15]: 0.00617 nM |
| B6 | 0.189 | 0.585 | 0.156 | – | no binding (tested: 100 nM antigen) | no binding (tested: 100 nM antigen) | no binding (tested: 100 nM antigen) | no binding (tested: 100 nM antigen) | no binding (tested: 100 nM antigen) | no binding (tested: 100 nM antigen) | – | – | no binding (tested: 100 nM antigen) | no binding (tested: 100 nM antigen) | Kd (Human Activin A Fc [16]): 0.128 nM |
